One block for each substance: values may come before it.
Columns and labels:
Assay in all cases: cell-based or functional assay
[1] = target: Chymotrypsin having an activity of approx. 40 BTEE units per mg
[2] = target: Trypsin having an activity of approx. 10,000 BAEE units per mg
[3] = target: Chymotrypsin having an activity of approx. 40 BTEE units per mg; conditions: scale: mg ChymoTrypsin inhibited/1 mgP-ChymoTrypsin Inhibitor
[4] = scale: mg ChymoTrypsin inhibited/1 mgP-ChymoTrypsin Inhibitor

BBI activity, quality control of material loaded on the DEAE column [1]: 0.09 not printed | Chymotrypsin inhibitor activity of SBTI intermediate (large-scale prep) (mg chymotrypsin inhibited per mg protein) [1]: 0.98 | KTI activity, quality control of material loaded on the DEAE column [2]: 0.97 not printed | Trypsin inhibitor activity of SBTI intermediate (large-scale prep) (mg trypsin inhibited per mg protein) [2]: 1.34
Substance: SBTI intermediate (crude soybean trypsin inhibitor preparation from soy flour)

BBI activity of final product, after the change of the filtration process [1]: 0.8 to 1.4 mg⁻¹ | BBI activity of final product, before the change of the filtration process [1]: 0.4 to 0.6 mg⁻¹ | BBI activity, step: Final after lyophilization "as-is" (mg chymotrypsin inhibited per mg solid) [1]: 0.8 | Chymotrypsin inhibitor activity of purified BBI (mg chymotrypsin inhibited per mg) [1]: 1.49 | BBI activity, step: BBI permeate of 30 Kda. [1, 4]: 0.8 | BBI activity, step: BBI pool [1, 4]: 0.5 | BBI activity, step: Permeate of 5 KDa [1, 4]: 0.13 | BBI activity, step: Retentate of 5 KDa after 4.5 x concentration [1, 4]: 0.8 | BBI activity, step: Retentate of 10 Kda after diafiltration [1, 4]: 0.7 | BBI activity, step: Retentate of 30 KDa [1, 4]: 0.13 | BBI activity, final lyophilized product on the basis of dry weight ([1]; scale: mg chymotrypsin inhibited per mg dry weight): 0.9 | BBI Activity, large-scale prep ([1]; scale: not given): 1.49 | BBI Activity, previous procedure ([1]; scale: not given): 1.2 | BBI activity, step: BBI After formulation and microfiltration 0.45/0.2 [3]: 0.8 | BBI activity, step: BBI permeate, after 30 Kda UF and additional washes [3]: 0.8 | BBI activity, step: BBI pool [3]: 0.6 | BBI activity, step: BBI pool after microfiltration 0.45/0.2 [3]: 0.6 | BBI activity, step: Final after lyophilization [3]: 0.9 | BBI activity, step: Retentate of 5 KDa after 5x concentration [3]: 0.9 | BBI activity, step: Retentate of 10 Kda after diafiltration [3]: 1
Substance: Bowman-Birk inhibitor (BBI) purified from soy flour

From US20190321303A1
